Data set [1] deals with T1, Thrombin (UniProt P00734;P00734 P00734:328-363,P00734:364-622). The experiment in a line: EMSA; high affinity; among most efficient competitors (FIG. 16).
The target of data set [2] is T1, Thrombin. The data set can be described thus: competition; does not compete with THR2 (binds the other exosite); poor competitor of beacon complex compared with bivalent constructs.
The target in data set [3] is T1, Thrombin. The experiment in a line: competition; affinity relative to THR2.
In data set [4] the target is T1, Thrombin. The experiment in a line: fluorescence intensity titration; 50 mM Tris pH 7.5, 100 mM NaCl, 5 mM KCl, 1 mM MgCl2.
In data set [5] the target is Single-stranded DNA binding protein (SSB) (Escherichia coli, UniProt P0AGE0 P0AGE0:2-178). The experiment in a line: FP; nanomolar concentrations, similar range as thrombin. To be noted: tags: Sigma; chain copies: 4; label: 5' fluorescein.
Sequence of Single-stranded DNA binding protein (SSB) (P0AGE0 2-178, one chain of several): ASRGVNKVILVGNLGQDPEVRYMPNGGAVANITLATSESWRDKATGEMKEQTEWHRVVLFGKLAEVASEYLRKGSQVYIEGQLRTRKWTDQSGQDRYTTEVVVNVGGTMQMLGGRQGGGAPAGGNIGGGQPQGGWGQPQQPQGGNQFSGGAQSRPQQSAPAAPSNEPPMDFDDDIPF
Data set [6] deals with T1, Thrombin. The experiment in a line: FP; nanomolar range only.

B1: THR18/THR19 bivalent (structured_DNA)
DNA 1: GGTTGGTGTGGTTGGTTTTTTTTTTTTTTTTTTTTTTTTTTTCTGTCGTTAGTGAAGGTT
DNA 2: AACCTTCACTAACGACAGTTTTTTTTTTTTTTTTTTTTTTTTTTTAGTCCGTGGTAGGGCAGGTTGGGGTGACT
On to B1, for which the binding result in data set [1] is given as “binds”.

With AGTCCGTGGTAGGGCAGGTTGGGGTGACT (ssDNA) [THR3 (60-18 [29])], the binding result in data set [2] is reported as “binds”.

B2: THR16/THR17 bivalent (structured_DNA)
DNA 1: GGTTGGTGTGGTTGGTTTTTTTTTTTTTTTTTCTGTCGTTAGTGAAGGTT
DNA 2: AACCTTCACTAACGACAGTTTTTTTTTTTTTTTTTAGTCCGTGGTAGGGCAGGTTGGGGTGACT
For B2, the binding result in data set [1] is reported as “binds”. With GGTTGGTGTGGTTGG (ssDNA) [THR4 (G15D)], the binding signal in data set [3] came to 1.7 fold. The term Kd denotes the equilibrium constant for the complex coming apart. In turn, GGTTGGTGTGGTTGG (ssDNA) [THR2 (G15D)] registered a Kd in data set [4] of 6.3 nM. Regarding AGTCCGTGGTAGGGCAGGTTGGGGTGACT (ssDNA) [THR1 (60-18 [29])], the binding result in data set [5] and in data set [6] was “binds” throughout.

These data come from patent US20140248710, “THREE-COMPONENT BIOSENSORS FOR DETECTING MACROMOLECULES AND OTHER ANALYTES” (Mediomics LLC, published 2014).
